Experimental data: the supplement of paper PMC10567573
± gives the standard deviation.

Test: protein stability index of a GFP-peptide fusion (GPS, HEK-293T) (PSI 1-6); higher = more stable
[1] = treatment: DMSO, c terminus: a fixed tail appended
[2] = treatment: MLN4924 1 uM, 8 h, c terminus: a fixed tail appended
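Note: 24-mer peptide tiles fused after GFP, lentivirally expressed, FACS-sorted into six equal bins by GFP/DsRed ratio, decoded by Illumina sequencing, PSI is the read-weighted mean bin number.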

Sequence | protein stability index [1] | protein stability index [2] | protein stability index (treatment: DMSO, c terminus: native) | protein stability index (treatment: MLN4924 1 uM, 8 h, c terminus: native)
QVAMPYQWEYPYLLSILPSLLGLL [JAGN1] | 2.8 ± 0.36 | 2.85 ± 0.64 | – | –
QVDPGTDLEPGVLMSAQTITSETT [EPB41L3] | 5.21 ± 0.32 | 5.16 ± 0.13 | – | –
QVPSGEDQTALSLEECLRLLEATC [NFE2L1] | 4.02 ± 0.98 | 3.96 ± 0.31 | – | –
QWEYPYLLSILPSLLGLLSFPRNN [JAGN1] | 2.85 ± 0.25 | 2.94 ± 0.35 | – | –
RAACFDGHLEIVKYLVEHKADLEV [FEM1C] | 2.59 ± 0.31 | 2.66 ± 0.58 | – | –
RADFVLAANSYDLAIKAITSSAKV [FKBP8] | 2.72 ± 0.18 | 2.84 ± 0.3 | – | –
RADVDHAIEKAFQLWSNVTPLTFT [MMP1] | 2.13 ± 0.2 | 2.44 ± 0.32 | – | –
RAGSQVVATTARHSAAYRADPLRV [FUNDC2] | 3.59 ± 0.22 | 3.78 ± 0.17 | – | –
RANRGILQQERQRLGQRQPPPSEP [DNAJC4] | 4.79 ± 0.22 | 4.79 ± 0.087 | – | –
RAVDWWALGILIFEMLSGFPPFFD [PRKX] | 2.99 ± 0.42 | 2.78 ± 0.57 | – | –
RDNGDPSLSSTATVLLVLEDEDPE [PCDHGC5] | 4.94 ± 0.36 | 5.16 ± 0.12 | – | –
RDQGSSALSGVGGIRLPNGKLKCD [IKZF1] | 4.66 ± 0.33 | 4.68 ± 0.32 | – | –
RDQHPQPSLGDSLESIPSLSQSPE [RTN2] | 5.44 ± 0.18 | 5.55 ± 0.12 | – | –
RDSHGKGIPNAIISVEGINHDIRT [CPXM2] | 4.2 ± 0.21 | 4.17 ± 0.27 | – | –
RDWWNSTSFSNYYRTWNVVVHDWL [SOAT2] | 2.35 ± 0.34 | 2.26 ± 0.21 | – | –
RDYIHSLKLLNVLEEYITDEQKEE [FAM9B] | 3.37 ± 0.38 | 3.52 ± 0.34 | – | –
REALTRLQELCYQWLRPHVSTKEQ [ZSCAN9] | 1.99 ± 0.24 | 2.46 ± 0.32 | – | –
REALVLRSVRVRLLLSFWKETDPL [PLD5] | 2.58 ± 1.1 | 2.38 ± 0.39 | – | –
RELWLKFHEVGTEMIITKAGRRMF [TBX5] | 2.31 ± 0.23 | 2.37 ± 0.31 | – | –
RENKRMADSLASKVTRLKSLALDI [BET1L] | 2.63 ± 0.12 | 2.7 ± 0.31 | – | –
RERIQILKTSEVTQHLPRECLPEN [PTPN9] | 4.46 ± 0.19 | 4.36 ± 0.31 | – | –
RERLGEIHTLPLPASLKAYLLYQ [SPSB1] | – | – | 2.3 ± 0.32 | 2.26 ± 0.27
REWYYGNVTRHQAECALNERGVEG [NCK2] | 3.33 ± 0.12 | 3.68 ± 0.16 | – | –

Sequence | protein stability index [1] | protein stability index [2] | protein stability index (treatment: DMSO, c terminus: native) | protein stability index (treatment: MLN4924 1 uM, 8 h, c terminus: native)
RFHGRLLFLKDVLGDEICCWSFYG [KCTD13] | 2.49 ± 0.38 | 2.56 ± 0.71 | – | –
RFTGTMDAFVKIVRHEGTRTLWSG [SLC25A39] | 2.53 ± 0.52 | 2.47 ± 0.25 | – | –
RHSNVVILTTSNITEKIDVAFVDR [TRIP13] | 2.34 ± 0.29 | 2.14 ± 0.16 | – | –
RIFKLSRHSKGLQILGQTLKASMR [KCNA1] | 2.54 ± 0.4 | 2.65 ± 0.58 | – | –
RIFRLPNNWYYISPRLTFQCLEDL [SLA] | 2.53 ± 0.28 | 2.38 ± 0.39 | – | –
RIIYQNKCMRNGPNALIASLALGD [EDNRA] | 2.48 ± 0.18 | 2.26 ± 0.21 | – | –
RKAITEAANAARHVAPEIRELLTQ [PWWP2B] | 4.06 ± 0.29 | 4.05 ± 0.079 | – | –
RKDTKEIYTHFTCATDTKNVQFVF [GNAI1] | 2.49 ± 1 | 2.64 ± 0.43 | – | –
RLCGRQVSRGPGVNVGTTALWKHL [ZBED2] | 2.29 ± 0.36 | 2.17 ± 0.31 | – | –
RLDIVKYLVENNANISIANKYDNT [FEM1B] | 2.5 ± 0.17 | 2.64 ± 0.4 | – | –
RLEALSTERDEIEDVKCQEDQKLQ [TRIM15] | 5.21 ± 0.32 | 5.66 ± 0.16 | – | –
RLEDKVKTLKAENAGLSSTAGLLR [JUNB] | 3.7 ± 0.22 | 3.97 ± 0.3 | – | –
RLELERKIESLMDEIEFLKKLHEE [PRPH] | 3.32 ± 0.17 | 3.44 ± 0.31 | – | –
RLGPYVLLEPEEGGRAYQALHCPT [TRIB3] | 2.69 ± 0.1 | 2.87 ± 0.38 | – | –
RLKCRSFKWYLENVYPEMRVYNNT [GALNT9] | 2.42 ± 0.17 | 2.19 ± 0.2 | – | –
RLKEYTIKSHSSLPPNNSYADFER [DAPK3] | 3.58 ± 0.26 | 3.61 ± 0.25 | – | –
RLNLTNTKQNFFSQTPILQALQHV [INTS3] | 2.23 ± 0.092 | 2.5 ± 0.17 | – | –
RLVFLAAFVVYLETETLVTREAVT [TSN] | 3.6 ± 0.24 | 2.82 ± 0.34 | – | –
RLVRVFRIFKLSRHSKGLQILGQT [KCNA1] | 2.65 ± 0.57 | 2.29 ± 0.36 | – | –
RMGATMAAINSIYSNTDANILFYV [GLT8D2] | 2.63 ± 0.59 | 3.14 ± 1.5 | – | –
RMTISLTVILIESTNEITYGLPIM [CLCN6] | 2.98 ± 0.3 | 3.06 ± 0.092 | – | –
RNLEDIHMSLEKDIAAMTNSLFID [TEKT4] | 3.29 ± 0.33 | 3.33 ± 0.27 | – | –
RNLHSHYHEAPMTRKHYQVTGYGI [POMT2] | 2.35 ± 0.15 | 2.46 ± 0.23 | – | –

Sequence | protein stability index [1] | protein stability index [2] | protein stability index (treatment: DMSO, c terminus: native) | protein stability index (treatment: MLN4924 1 uM, 8 h, c terminus: native)
RNSLSAIFNNVMTLCAMLPLLLFT [SLC29A1] | 3.3 ± 0.65 | 3.33 ± 0.22 | – | –
RPRALPCQRSRYRDSLTQPDEEPM [RSPH3] | 4.62 ± 0.36 | 5.01 ± 0.17 | – | –
RPRKLYKHSSTSSRIAKGGVDHTK [BTBD10] | 4.06 ± 0.21 | 4.12 ± 0.23 | – | –
RRFNFDTDRPLLSTLEESVVRICC [SMG5] | 2.17 ± 0.25 | 2.19 ± 0.22 | – | –
RSALWCLGLNAAFWFFALTSLRLV [RETREG3] | 2.91 ± 0.53 | 3.03 ± 0.72 | – | –
RSHSDSLDHDIFQLIDPDENKENE [CDC25A] | 5.14 ± 0.44 | 5.48 ± 0.2 | – | –
RSWMFRRGPLNSDRSDYFAAWGAR [TRIM43] | 2.5 ± 0.14 | 2.62 ± 0.47 | – | –
RTKVVKPYSTVDNPVYYGPSDFFI [EFHC1] | 2.35 ± 0.22 | 2.42 ± 0.36 | – | –
RTLKSYLGLTNQSRRYNRKEPAEF [ZNF649] | 3.09 ± 0.31 | 3.05 ± 0.48 | – | –
RTSSGTSREKTACAINKVGVSFST [FAM98B] | 3.29 ± 0.29 | 3.87 ± 0.46 | – | –
RVKLISNKGTETDNDPSCVHPIIK [PHTF1] | 3.58 ± 0.16 | 3.83 ± 0.35 | – | –
RVPAGIFKHTLSISRALLSDVVPE [MFSD9] | 2.82 ± 0.74 | 3.02 ± 0.22 | – | –
RVRLDSELRNVQDVVEDYKKRYEE [KRT71] | 4.81 ± 0.28 | 4.97 ± 0.32 | – | –
RYADLEAVNRARRPLARPIKRGDI [RHOBTB1] | 3.6 ± 0.4 | 3.83 ± 0.12 | – | –
SAPVETPRGKPPLNTRSQAPLLRW [HMOX1] | 3.64 ± 0.26 | 3.72 ± 0.24 | – | –
SASAKRVWNMTATRPKKMGSQLPK [FATE1] | 3.76 ± 0.27 | 3.79 ± 0.18 | – | –
SCEVSEENCERREAFWAEWKDLTL [TCAP] | 4.16 ± 0.2 | 4.21 ± 0.39 | – | –
SDDAAAPALETQPQGDEEDIASRY [SMOC2] | 5.62 ± 0.18 | 5.47 ± 0.11 | – | –
SDSDSELSSSEGLEPGSADPLANG [PSD2] | 5.5 ± 0.35 | 5.59 ± 0.14 | – | –
SENIKLREENEKLRLENSSLFSQA [CCDC89] | 4.65 ± 0.08 | 4.58 ± 0.2 | – | –
SENMWNTGSTYNLSSGMAVAGMPT [CARM1] | 3.48 ± 0.15 | 3.63 ± 0.1 | – | –
SFDYEQFHELQMQVTASDSGDPPL [PCDHGA10] | 4.89 ± 0.21 | 4.9 ± 0.15 | – | –
SFFVPRPTPSTPRPTPQDWLHRRA [ADAMTS4] | 3.4 ± 0.21 | 3.4 ± 0.084 | – | –

Sequence | protein stability index [1] | protein stability index [2] | protein stability index (treatment: DMSO, c terminus: native) | protein stability index (treatment: MLN4924 1 uM, 8 h, c terminus: native)
SFRAGSKGLSGGFGSRSLYSLGGV [KRT71] | 2.12 ± 0.21 | 2.77 ± 0.33 | – | –
SGMVTIITGLPLDNPSVLSGPMQA [SMG5] | 2.32 ± 0.35 | 2.14 ± 0.39 | – | –
SGQYRELGGAIDFGAAYVLEQASS [ATL3] | 3.47 ± 0.27 | 3.61 ± 0.41 | – | –
SHAGKVVLRSWYEKNKHIFPASRW [FAM50A] | 2.4 ± 0.3 | 2.58 ± 0.21 | – | –
SHAIHVEEQSDQSFSSLEPDNEQL [IQUB] | 5.38 ± 0.27 | 5.63 ± 0.17 | – | –
SHHSKHKAPSKLGLIISGPILQEG [DLC1] | 3.08 ± 0.2 | 3.28 ± 0.13 | – | –
SIHYAAAYGHRQCLELVSCFVLFS [ANKRD44] | 2.25 ± 0.44 | 2.2 ± 0.52 | – | –
SILFGFWTSFICDTYIVLAWISKI [SMIM2] | 3.15 ± 0.34 | 3.31 ± 0.25 | – | –
SKLASMSNDFKSVLEVRTENLKQQ [STX5] | 4.04 ± 0.28 | 4.21 ± 0.32 | – | –
SKNGNGLKNTPRFKRRRVRRRRME [PCMTD2] | 4.6 ± 0.2 | 4.58 ± 0.32 | – | –
SLAGALGVKFVGLFIILQVGLNTI [POMT2] | 3.27 ± 0.16 | 3.16 ± 1.2 | – | –
SLDGRDPGNGTHGLSPEEKEQLSN [ELOA2] | 5.48 ± 0.23 | 5.64 ± 0.16 | – | –
SLDISGHMILENCSISKMEEEAGQ [ZER1] | 4.66 ± 0.22 | 4.68 ± 0.22 | – | –
SLGAVGEGFHNYHHSFPYDYSASE [SCD] | 3.81 ± 0.24 | 3.88 ± 0.28 | – | –
SLKLIKRLYVDKSLNLSTEFISST [SERPINB5] | 2.38 ± 0.26 | 2.11 ± 0.15 | – | –
SLNMSRRDSESTRHDSETEDMLWD [PHTF1] | 5.32 ± 0.15 | 5.26 ± 0.2 | – | –
SLQEEPVEGFRITLVDESDLYNWE [UBE2R2] | 3.66 ± 0.49 | 3.58 ± 0.4 | – | –
SMAAVPTLELCHDELFADLFNSNH [CEBPD] | 3.57 ± 0.3 | 3.6 ± 0.26 | – | –
SNDFKSVLEVRTENLKQQRSRREQ [STX5] | 4.9 ± 0.21 | 4.92 ± 0.31 | – | –
SNFETYPENDWDTAAPVPQKDLEI [PRKX] | 5.03 ± 0.12 | 5.15 ± 0.2 | – | –
